Patent US20160075789A1
Blank lines part the entries; values can stand above or below the binder they belong to.

How the values were obtained:
Fc-EDA1 (human) [1] = experiment: sandwich ELISA, EctoD2 at capture, biotinylated EctoD3 at revelation (FIG. 24)
Fc-EDA1 (human) [2] = experiment: sandwich ELISA of Fc-EDA1 pre-incubated in buffer or mouse serum (FIG. 26)
Fc-EDA1 (human) [3] = experiment: cell-based or functional assay

Fc-EDA1 (human), sequence (Q92838 249-385): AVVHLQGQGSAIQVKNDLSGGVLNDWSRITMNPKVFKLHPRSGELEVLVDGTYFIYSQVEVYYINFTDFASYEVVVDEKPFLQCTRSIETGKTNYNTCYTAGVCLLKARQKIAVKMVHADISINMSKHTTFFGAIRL

concentration of Fc-EDA1 readily detected (Fc-EDA1 (human) [1]): < 1 ng/mL
most sensitive detection of Fc-EDA1 (Fc-EDA1 (human) [2]): < 1 ng/mL
B1: mAbEDA1-EctoD3 (antibody, mouse IgG1, V domains shown)
VH: QVQLHQSGAELARPGASVKLSCKASGYTFTSYGISWVKQRTGQGLEWIGEVYPRSGDTYYHDYFEGKATLTADKSSSTAYMELRSLTSEDSAVYFCARGDYADVWGTGTTVTVSS
VL: DIVLTQSPASLAVSLGQRATISCRASKSVSTFGNSYMLWYQQKPGQPPKLLIYLASNLESGVPARFSGSGSGTDFTLNIHPVEEEDAATYYCQNSRELPYTFGGGTKLEIKR

concentration of Fc-EDA1 readily detected (Fc-EDA1 (human) [1]): < 1 ng/mL
most sensitive detection of Fc-EDA1 (Fc-EDA1 (human) [2]): < 1 ng/mL
B2: mAbEDA1-EctoD2 (antibody, mouse IgG1, V domains shown)
VH: EVMLEESGGGLVKSGGSLKLSCAASGFTFSTYAMSWVRQTPGKRLEWVAAISDGGDNTYYLDSVKGRFTISRDNAKNTLYLQMSSLRSEDSALYYCARQYNDYEAMDYWGQGTSLTVSS
VL: DIVLTQSPTSLAVSLGQRATISCRASESVDSYGSSFMHWYQQKPGQPPKLLFYRASNLESGIPARFSGSGSRTDFTLTINPVEADDVATYYCQQSNEDPFTFGSGTKLEIKR
cytotoxicity assay using EDAR-Fas Jurkat cells (PMS/MTS viability): antibody concentration at which 40 ng/mL of Fc-EDA1 is completely inhibited (Fc-EDA1 (human) [3]): 125 ng/mL
cytotoxicity assay using EDAR-Fas Jurkat cells: stoichiometry of inhibition (antibodies per Fc-EDA1) (Fc-EDA1 (human) [3]): 5
